Test results from the supplement of paper PMC12764529.
± gives the half width of the 95% confidence interval.

Columns and labels:
[1] = folding stability dG unfold from chymotrypsin proteolysis; higher = more stable
Outline: (§1)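 Designed mini-proteins with no cysteine and under 80 residues were kept only if AlphaFold2 dimer inter-PAE was above 15. In a PA-tagged cDNA display construct, they were digested with trypsin and chymotrypsin and then sequenced. K50 was inferred by Bayesian fitting of counts, and unfolding free energy was derived per protease or combined against a sequence-predicted unfolded-state K50 and a shared folded-state K50.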

[2] = folding stability dG unfold from trypsin proteolysis; higher = more stable
Outline: as §1

[3] = folding stability dG unfold (combined trypsin and chymotrypsin); higher = more stable
Outline: as §1

| Sequence | folding stability dG unfold [1] | folding stability dG unfold [2] | folding stability dG unfold [3] |
| --- | --- | --- | --- |
| SAGGAPLVPVSTETYTVKDSKGNEVTITIETLPDGSYRITITYPNGEVKEYEFPSKEEAEKLEITVNPSAGG [r13_109_JUSTAS] | 3.66 ± 0.1 kcal/mol | 3.63 ± 0.23 kcal/mol | 3.62 ± 0.14 kcal/mol |
| SAAKIYILPGNNVILVRPPLPNGPFGELVIPTKPSELENPEFLKEIVDEIRKAGIPFEATILPPGVPPESAG [r14_60_TrMRF] | 1.34 ± 0.11 kcal/mol | 0.426 ± 0.089 kcal/mol | 0.868 ± 0.24 kcal/mol |
| SAGGSAGGSDPDLDIPPAPLEEIYIPGTGRLLVLYEPTGLVAAYPPSGSFEIGVYDPETGKISSAGGSAGGS [r12_420_TrMRF] | -0.775 ± 0.3 kcal/mol | -0.0238 ± 0.073 kcal/mol | -0.297 ± 0.12 kcal/mol |
| SAGGSAGGSVYSAKSPDGYTITISNGGKPITLPVSDPAKAASLTLKTPDGKTATVTIVPASLASAGGSAGGS [r12_730_JUSTAS] | -0.295 ± 0.23 kcal/mol | -0.229 ± 0.12 kcal/mol | -0.216 ± 0.17 kcal/mol |
| SFKLEKTITLPDYVLKIEVTFKPKPDKTVIAPIKVTIYDPVKKKPYTKELTKPFPPEDPLKFVEEALKEIFS [r1_171_TrMRF] | 0.235 ± 0.42 kcal/mol | 0.425 ± 0.1 kcal/mol | 0.438 ± 0.33 kcal/mol |
| SANMPPGDWKPINIKVKIERPGGKPEFEYPIYKHPDGMIMIFIHFPIPPGAYKIKIEFPGNGKENEFKFSAG [r14_280_TrROS] | 2.84 ± 0.09 kcal/mol | 1.52 ± 0.058 kcal/mol | 2.29 ± 0.32 kcal/mol |
| SAGGSAGGGMEPVTETITVPITTPEELEAVKKEAEARREKEGLVSYEISESPDGTVTITITKPVSAGGSAGG [r6_730_JUSTAS] | 0.334 ± 0.071 kcal/mol | 0.155 ± 0.1 kcal/mol | 0.427 ± 0.34 kcal/mol |
| SAGGSLSEIIEKAKELAKKKYPNKGVTVPVEIKYKDPVKKKWIKVKIEITFDKNGNIIKITIKEIKLESAGG [r13_770_JUSTAS] | 4.04 ± 0.12 kcal/mol | 3.48 ± 0.27 kcal/mol | 3.91 ± 0.41 kcal/mol |
| SAGGSAGGSMTVERNVTSEEEAEEWREEIEKELGVKVEEVIREETEEGDLRVKFVIEIPEDLKSAGGSAGGS [r12_577_JUSTAS] | -0.367 ± 0.2 kcal/mol | 0.37 ± 0.069 kcal/mol | 0.0537 ± 0.18 kcal/mol |
| STLTLEELKERFPELSEEELEALAERLAALPAPVTVTVEVRPAPPPPVEERELSEEELLEARLRPGERVESA [r9_1024_TrROS_Hall] | 1.94 ± 0.056 kcal/mol | 0.624 ± 0.06 kcal/mol | 1.51 ± 0.098 kcal/mol |
| SMREIPPEDLKKAANAYLNGDKEKVEQLFKDAGFKKVVLEEVEGDGEVLFVALVEHPDGPTVLTVSSSDFSA [r9_783_TrMRF] | 1.33 ± 0.1 kcal/mol | 0.7 ± 0.064 kcal/mol | 1.04 ± 0.25 kcal/mol |
| SAGGSAGGPMSAEELARFLANEFHKKHGMPPGHRVKIPVKWRDPEDGNEQEVTIEIPIRMPKGDSAGGSAGG [r6_799_TrROS] | 1.4 ± 0.083 kcal/mol | 0.32 ± 0.17 kcal/mol | 1.2 ± 0.16 kcal/mol |
| SAGGSAPPNIEREEYEFYLRNPDGKELGPAKIEVIRDPGDPDRPILTIEWPNGEPMLFDADDIEPLSAGGSA [r15_954_TrROS] | 0.384 ± 0.17 kcal/mol | 0.18 ± 0.052 kcal/mol | 0.317 ± 0.19 kcal/mol |
| SAGSSLRLELDLEVTLYAPVVSVRPDGSLSLVPGSTRPIPVRLRVTFELTLDPDNPLNVSINVDIEADFSAG [r14_274_TrMRF] | 5.9 ± 0.081 kcal/mol | 4.1 ± 0.076 kcal/mol | > 6 kcal/mol |
| SAGGSAGGSAGGEKTIRITVKNENGETLEIEVSEEDAEELLKALEDAGISLEEITRIEPVSAGGSAGGSAGG [r7_745_TrROS_Hall] | 1.62 ± 0.098 kcal/mol | 1.92 ± 0.12 kcal/mol | 1.8 ± 0.15 kcal/mol |
| SAGGGSSSLPAVPVSVETFTFPYKTEEEAKAAAEELAKKLEAEDGKPVKVEVSFDPATGTATVTITVVSAGG [r13_517_JUSTAS] | 3.791 ± 0.036 kcal/mol | 4.2 ± 0.16 kcal/mol | 3.815 ± 0.035 kcal/mol |

| Sequence | folding stability dG unfold [1] | folding stability dG unfold [2] | folding stability dG unfold [3] |
| --- | --- | --- | --- |
| SAGDNNKKPKYVYIPITINVPLPPGQTHEEAVDEVRLIMEELFPPGFKISEVKVHPEYNTVTVWIQIRSAGG [r19_81_TrROS] | 2.16 ± 0.044 kcal/mol | 2.11 ± 0.089 kcal/mol | 2.22 ± 0.18 kcal/mol |
| SAGGSTVKTITLEFTRDPSTGAITEAEAEIERLKNDPNWEVTDPTITPLPDGTVKVPAKVKIPSNANLSAGG [r13_428_JUSTAS] | 0.12 ± 0.27 kcal/mol | 0.116 ± 0.2 kcal/mol | 0.075 ± 0.23 kcal/mol |
| SAGGSAGGSAGMEYHLVVVRPPNGEELVLLTDDDPELARRAARELFPGAEVRVEPVVLPESAGGSAGGSAGG [r11_850_TrMRF] | 0.0832 ± 0.069 kcal/mol | 0.111 ± 0.034 kcal/mol | 0.099 ± 0.077 kcal/mol |
| SAGGSAGGSASAEEIAAKIEALFPVKVTVVREEPTPLGRPEVVIEVDAVGVPEELLEEVLKSAGGSAGGSAG [r3_40_JUSTAS] | 0.446 ± 0.033 kcal/mol | 0.68 ± 0.04 kcal/mol | 0.559 ± 0.064 kcal/mol |
| SAGGSAGGSSPVPVKVSANSVEPGESSSSNINIPKEALEKDSLTPEELKKILQKQGPNVTITGSAGGSAGGS [r20_221_JUSTAS] | 0.124 ± 0.049 kcal/mol | -0.423 ± 0.086 kcal/mol | -0.0407 ± 0.23 kcal/mol |
| SAGGSAPEPVEFTLGHPDGVPYRVTLTRLPDTDLYLVTVEFPGPEVTFTGVAPLEVLENIPGLTPVSAGGSA [r15_622_TrMRF] | 1.88 ± 0.09 kcal/mol | 1.53 ± 0.035 kcal/mol | 1.72 ± 0.068 kcal/mol |
| SAGGSAGGSAGGGMMLAEFLKYDPRNPTATVVSVRTFSDPEEARAEAEKRGLLVRVIEPSAGGSAGGSAGGS [r10_657_JUSTAS] | 0.0192 ± 0.16 kcal/mol | -0.45 ± 0.28 kcal/mol | -0.111 ± 0.1 kcal/mol |
| SAGGSAGGSVVPVKAVFKLPDGDEVEGLALVDNRPDGSLVVLFQLPGTGETVGSATAELLKVEGSAGGSAGG [r6_254_TrMRF] | 0.727 ± 0.1 kcal/mol | 0.523 ± 0.032 kcal/mol | 0.638 ± 0.11 kcal/mol |
| LEIIEKLKFPGYKITSVSIQRTNNKVTIVIHFRHPKEYYMISLEIDPPNGGIKITEVHPIKPGESMDDMMNS [r1_383_TrROS] | 3.75 ± 0.088 kcal/mol | 3.09 ± 0.15 kcal/mol | 3.43 ± 0.33 kcal/mol |
| SAGGSAGGDPGDDYKIGVFPFTFLFGGYRISIPIFRITKDGKPQHIFMAIEIEPLPPPKDPGDNSAGGSAGG [r6_684_TrROS] | 4 ± 0.087 kcal/mol | 3.21 ± 0.093 kcal/mol | 3.71 ± 0.15 kcal/mol |
| SAGGSAGGSAGGHYIRAEIEIKYEHPGNGQEQTMTIPIEIPIPPPPPVSAEDRAKQNGIGSAGGSAGGSAGG [r7_79_TrROS] | 0.855 ± 0.041 kcal/mol | 0.318 ± 0.084 kcal/mol | 0.669 ± 0.065 kcal/mol |
| SAGGSAGGSAGKPKKPKLVKVKITLPNGEKKEIITEDVEEVIKEINEEFGAIKIEVEEIKSAGGSAGGSAGG [r17_508_TrMRF] | 2.8 ± 0.14 kcal/mol | 2.68 ± 0.12 kcal/mol | 2.76 ± 0.17 kcal/mol |
| SAGGSAGGSDIPIEIVDVEHTDNMISVIIKGPDGNYFVINFQFNPGNGKFNVNISIIPPEDLKSAGGSAGGS [r20_70_TrROS] | 3.95 ± 0.26 kcal/mol | 2.07 ± 0.21 kcal/mol | 3.55 ± 0.26 kcal/mol |
| SMDFKENQSFYITEITDDEVTFIFNNKPYKFPKEFINSKDTIITIYNGKIKEIKKPKPLKLHPEEIKKLSSA [r9_842_TrMRF] | 1.43 ± 0.12 kcal/mol | 0.519 ± 0.17 kcal/mol | 1.04 ± 0.36 kcal/mol |
| SAGGSAMITVKLEGKPVTVEILSREPKGRLVKAQAVVHRPDDGTEKTVSGLLSEEEIEKAIEEALASAGGSA [r15_944_JUSTAS] | 0.143 ± 0.11 kcal/mol | -0.917 ± 0.32 kcal/mol | -0.15 ± 0.12 kcal/mol |
